Laboratory results: US20150218230

Columns and labels:
Experiment in all cases: cell_activity
[1] = system: TALE-nuclease collection F NN-NI-NN (synthetic)
[2] = system: TALE-nuclease collection F HD-NN-NN (synthetic)
[3] = system: TALE-nuclease collection F NG-NG-NN (synthetic)
[4] = system: TALE-nuclease collection F NN-NI-NG (synthetic)
[5] = system: TALE-nuclease collection F NG-NG-NI (synthetic)
[6] = system: TALE-nuclease collection F NN-NI-HD (synthetic)
[7] = system: TALE-nuclease collection F NG-NN-NN (synthetic)
[8] = system: TALE-nuclease collection F NG-HD-NI (synthetic)
[9] = system: TALE-nuclease collection F NN-NG-NI (synthetic)
[10] = system: TALE-nuclease collection F NI-NN-NN (synthetic)
[11] = system: TALE-nuclease collection F NG-NI-NI (synthetic)
[12] = system: TALE-nuclease collection F NG-NI-NG (synthetic)
[13] = system: TALE-nuclease collection F NG-NN-NG (synthetic)
[14] = system: TALE-nuclease collection F NG-NG-HD (synthetic)
[15] = system: TALE-nuclease collection F HD-NG-HD (synthetic)
[16] = system: TALE-nuclease collection F NG-NN-HD (synthetic); details: GFP disruption, mammalian cells, rank 1
[17] = system: TALE-nuclease collection F NG-NI-NN (synthetic)
[18] = system: TALE-nuclease collection F NI-NG-HD (synthetic)
[19] = system: TALE-nuclease collection F NG-HD-HD (synthetic)
[20] = system: TALE-nuclease collection F NG-HD-NN (synthetic)
[21] = system: TALE-nuclease collection F NI-NN-NG (synthetic)
[22] = system: TALE-nuclease collection F NG-NG-NG (synthetic)
[23] = system: TALE-nuclease collection F NG-NI-HD (synthetic)
[24] = system: TALE-nuclease collection F NG-HD-NG (synthetic)

“integrated GFP locus TALE-nuclease target” was tested, and the activity (% GFP negative cells) [1] was 3.2, the activity (% GFP negative cells) [2] was 4.4 and the activity (% GFP negative cells) [3] was 18.6. The activity (% GFP negative cells) [4] was 5.1, the activity (% GFP negative cells) [5] was 9.4 and the activity (% GFP negative cells) [6] was 5.3. It also gave an activity (% GFP negative cells) [7] of 19.8, an activity (% GFP negative cells) [8] of 4.5 and an activity (% GFP negative cells) [9] of 7.6. The activity (% GFP negative cells) [10] was 6.2, the activity (% GFP negative cells) [11] was 12.6 and the activity (% GFP negative cells) [12] was 18.3. For the same substance, the activity (% GFP negative cells) [13] was 22.2, the activity (% GFP negative cells) [14] was 21 and the activity (% GFP negative cells) [15] was 3.9. It also gave an activity (% GFP negative cells) [16] of 28.8, an activity (% GFP negative cells) [17] of 17.7 and an activity (% GFP negative cells) [18] of 3.6. The activity (% GFP negative cells) [19] was 18.9, the activity (% GFP negative cells) [20] was 6.5 and the activity (% GFP negative cells) [21] was 5.9. The activity (% GFP negative cells) [22] was 19.5, the activity (% GFP negative cells) [23] was 22.8 and the activity (% GFP negative cells) [24] was 14.7.
